Source: IntAct's records for PubMed 17277084

B1: Serine/threonine-protein kinase PBS1 (Arabidopsis thaliana (Mouse-ear cress)), Q9FE20 (parent)
chain: MGCFSCFDSSDDEKLNPVDESNHGQKKQSQPTVSNNISGLPSGGEKLSSKTNGGSKRELLLPRDGLGQIAAHTFAFRELAAATMNFHPDTFLGEGGFGRVYKGRLDSTGQVVAVKQLDRNGLQGNREFLVEVLMLSLLHHPNLVNLIGYCADGDQRLLVYEFMPLGSLEDHLHDLPPDKEALDWNMRMKIAAGAAKGLEFLHDKANPPVIYRDFKSSNILLDEGFHPKLSDFGLAKLGPTGDKSHVSTRVMGTYGYCAPEYAMTGQLTVKSDVYSFGVVFLELITGRKAIDSEMPHGEQNLVAWARPLFNDRRKFIKLADPRLKGRFPTRALYQALAVASMCIQEQAATRPLIADVVTALSYLANQAYDPSKDDSRRNRDERGARLITRNDDGGGSGSKFDLEGSEKEDSPRETARILNRDINRERAVAEAKMWGESLREKRRQSEQGTSESNSTG
partner: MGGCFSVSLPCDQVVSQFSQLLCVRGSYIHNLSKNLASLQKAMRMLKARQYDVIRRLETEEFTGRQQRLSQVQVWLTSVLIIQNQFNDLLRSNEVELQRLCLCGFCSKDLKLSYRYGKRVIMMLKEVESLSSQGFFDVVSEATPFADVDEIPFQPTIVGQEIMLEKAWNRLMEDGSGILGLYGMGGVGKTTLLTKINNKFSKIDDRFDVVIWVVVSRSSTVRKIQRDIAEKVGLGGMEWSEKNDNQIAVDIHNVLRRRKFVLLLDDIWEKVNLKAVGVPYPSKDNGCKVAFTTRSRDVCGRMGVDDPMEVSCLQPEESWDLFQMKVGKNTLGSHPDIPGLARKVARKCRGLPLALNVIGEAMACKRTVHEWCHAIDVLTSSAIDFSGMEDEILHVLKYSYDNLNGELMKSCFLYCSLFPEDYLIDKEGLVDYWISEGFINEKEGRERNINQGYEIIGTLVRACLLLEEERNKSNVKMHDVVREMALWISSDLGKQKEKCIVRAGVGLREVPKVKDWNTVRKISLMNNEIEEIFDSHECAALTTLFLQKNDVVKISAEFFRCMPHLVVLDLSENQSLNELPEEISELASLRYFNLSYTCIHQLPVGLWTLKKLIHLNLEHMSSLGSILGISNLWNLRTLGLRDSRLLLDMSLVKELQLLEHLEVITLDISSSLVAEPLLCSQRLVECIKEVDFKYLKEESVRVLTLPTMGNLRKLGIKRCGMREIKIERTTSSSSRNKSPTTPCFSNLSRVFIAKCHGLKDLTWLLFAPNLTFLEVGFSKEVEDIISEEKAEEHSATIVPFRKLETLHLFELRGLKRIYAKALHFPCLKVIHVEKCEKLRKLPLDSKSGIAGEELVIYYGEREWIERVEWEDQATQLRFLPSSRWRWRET

Variants of: B1
Settings: with rps5_arath RPS5, O64973
With G252R the “effect of a mutation on the interaction” value was “disrupting interaction strength”. K115N was tested, and the “effect of a mutation on the interaction” value was “disrupting interaction strength”.
